Experimental findings from the DeepSol protein solubility set are described below.

The nature of this data set: soluble on expression in E. coli; label from the status in PepcDB or PDB records.
For the sequence “MKPTNKAQDDDAVFALSTEVNHKLDLHQSSAEALRLAGVYTRQSCVLDLYHGYRSDDEDTEPDEEDGRLQTVREYHENGMLKLMRTFVRRLRRDATDPTAESSYYDRVVEEKHYDPSGICRVDMHFALGQPYLYRKHYYPNNRLKSEKVFFVEDEETMRARKVGHWRTYYENGNIQSEIIYNKDGVRCGFCKRYAIDGAIEWVKDYTREQEERLQAFNAKRGNLDLTVTDAARVLGLEGDWCSHVVNRTFRSKCAPLHPDWRRTAGDKAGETWEEEQRTEAFIRLSRAREVLLKFLETHPRECSCERGGA”, the “soluble on expression in E. coli” value was “not soluble”. Consider “MKPTTISLLQKYKQEKKRFATITAYDYSFAKLFADEGLNVMLVGDSLGMTVQGHDSTLPVTVADIAYHTAAVRRGAPNCLLLADLPFMAYATPEQAFENAATVMRAGANMVKIEGGEWLVETVQMLTERAVPVCGHLGLTPQSVNIFGGYKVQGRGDEAGDQLLSDALALEAAGAQLLVLECVPVELAKRITEALAIPVIGIGAGNVTDGQILVMHDAFGITGGHIPKFAKNFLAETGDIRAAVRQYMAEVESGVYPGEEHSFH”, for which the “soluble on expression in E. coli” value is “soluble”. Take “MKQAIVYWKTLKAGILTESDEGYSFAYDKDYLTMPEAQGISLTMPLREEPFQSNMLHPFFDGLIPEGWLLDIAQKNWKIDSRDRMALLLACCRDCIGAVSIEPLNTTEDDE”: the “soluble on expression in E. coli” value is given as “not soluble”. “MKQGTVKWFNAEKGFGFIEVEGENDVFVHFSAINQDGYKSLEEGQAVEFEVVEGDRGPQAANVVKL”: the “soluble on expression in E. coli” value is recorded as “not soluble”. The value for “MKQKIWYTYDDIHRVIKALAEKIRNADIKYDAMIAIGGGGFIPARMLRCFLEIPIYAVTTAYYDSDNEGQVTEEVKKVQWLDPVPEALRGKNVLVVDEVDDSRVTMEFCLKELLKEDFGTIGVAVLHEKIKAKAGKIPEGIPYFSGITVEDWWINYPWDALDIDEHNRLAEAGRG” was “not soluble”. The value for “MKQLTILGSTGSIGNSTLSVVRANPELFKVTALVAGRNVREMAQQCLEFSPRYAAMSDEHSAKSLRLLLAEQGSDTEVYSGETAACELAALDDVDQVMAAIVGIAGLPSTLAAIRAGKQVLLANKESLITCGKLFMDEVKRSRAQLLPIDSEHNAIFQSLPERIQRQLGYSSLNENGVSRIILTGSGGPFRETPLSQFSDVTPDQACAHPNWSMGRKISVDSATMMNKGLEYIEARWLFNASAEQIEVVLHPQSVIHSMVRYHDGSILAQMGTPDMRTPIAHAMAYPMRVSSGVAPLDFCKVGALTFTTPDYQRYPCLKLAIDACNAGQAATTALNAANEISVMAFLDSKIRFTDIEVINRTVVEGLLLSEPTSVEEVLVIDRKARDVAAQVIAKLNN” was “not soluble”; that for “MKQLYATIRFNGYEEAADKGDLAVHKLVAAALDDAEASLKDLFAQQIFGDGTGNSGKDLTGLKAYVDDGTAVAVYGGIDRATNPWWKANVKKSANNKVLDIKQMREVFAKCSRGGMENKPDFIVTDLNTWLQYAELVDGKTTIQQPLGKVAEEFANLGFAQLSFMGIPVVYDEYCPAYTMYFINSNTFQLYGKPGRMFTTSEIVKIPDEDSKVGQIFFAGEFVGTEPRANGRLDLTVS” was “not soluble”; that for “MKQQEVRQRAFAMPLTSPAFPPGPYRFVNREYMIITYRTDPAAIEAVLPEPLQMAEPVVRYEFIRMPDSTGFGDYSESGQVIPVTFRGERGSYTLAMFLDDQPPLAGGRELWGFPKKAGKPRLEVHQDTLVGSLDFGPVRIATGTMGYKYEALDRSALLASLAEPNFLLKIIPHVDGSPRICELVRYHTTDVAIKGAWSAPGSLELHPHALAPVAALPVLEVLSARHFVCDLTLDLGTVVFDYLRQ” was “soluble”.

Regarding “MKRGIIIIEDKKVSVTGNEVWMTATEIAGLFRAGVPAVNAAIKAVRKSDVLNDYEVCRYMRLENGLHADVYALEIIIPIAFRLNTYCTHVFRRWLVEKALAKEKQQAYVMLIHKANGYC”, the “soluble on expression in E. coli” value is given as “not soluble”.

Regarding “MKRIGILTSGGDAPGMNAAVRAVTRVAIANGLEVFGIRYGFAGLVAGDIFPLESEDVAHLINVSGTFLYSARYPEFAEEEGQLAGIEQLKKHGIDAVVVIGGDGSYHGALQLTRHGFNSIGLPGTIDNDIPYTDATIGYDTACMTAMDAIDKIRDTASSHHRVFIVNVMGRNCGDIAMRVGVACGADAIVIPERPYDVEEIANRLKQAQESGKDHGLVVVAEGVMTADQFMAELKKYGDFDVRANVLGHMQRGGTPTVSDRVLASKLGSEAVHLLLEGKGGLAVGIENGKVTSHDILDLFDESHRGDYDLLKLNADLSR”, the “soluble on expression in E. coli” value is on record as “soluble”.

For the sequence “MKRIPIKELIVEHPGKVLILDGGQGTELENRGININSPVWSAAPFTSESFWEPSSQERKVVEEMYRDFMIAGANILMTITYQANFQSISENTSIKTLAAYKRFLDKIVSFTREFIGEERYLIGSIGPWAAHVSCEYTGDYGPHPENIDYYGFFKPQLENFNQNRDIDLIGFETIPNFHELKAILSWDEDIISKPFYIGLSVDDNSLLRDGTTLEEISVHIKGLGNKINKNLLLMGVNCVSFNQSALILKMLHEHLPGMPLLVYPNSGEIYNPKEKTWHRPTNKLDDWETTVKKFVDNGARIIGGCCRTSPKDIAEIASAVDKYS”, the “soluble on expression in E. coli” value was “soluble”. The entry for “MKRKFLIASHGNLAKGFQSSLDILADKGKELAVINAYVTPEDYTPIIQTFLQSLGAEEQAIILTDLYGGSVNQKIVQEVMTTKPDNVFIISNANLAIALSLIFLKEGEKLTKEDIQAAIAEAQIQFVELNPSNEEENFF” is “not soluble”; for “MKRLLLSAAILSSMALFNVNAQELKTSADMKGSFKKNVVLEVFTAEWCGYCPGGKERIAKAIEMLDDEYKERVFQTFVHYNDGISKKWPRVGQLFIALDQTLGIPGFPTFSVCRMEKKGENLSIGAPIAIKNKIMKGFGDGTAPAEVNLKLTKGATPEDVCTATFTGKVDADLIGKPLMLTAYVLKNNMKPINPQNGAGDGYLHQHTVLMILSTDVKGDALNIAADGSFTIKKEFKLDGFEIKDTDVLAFVHHPMSNAENHSIINAGQESLDKAEPTATEQIVATPSVKAYVQNGKIVVEEEYSKMEVFNATGQLVKNESLVPGVYVVRITANGVMYFLKVLVP” it is “not soluble”.

For “MKRLSPEVFKVPIDRIRNGYYSDIYFINYVKVLKRDSRHPRVYYQFFPRKDAVICGIDEALAILKFCTGYYKDEEKARELFEEILKLDKEMQAASVEMDVQKILELTQKKWDLRLKLNDLWVDKWDEIEVHALYDGEEAKEGEPIMTIEGDPTYFGYLETVLLGVIARATSTATAVKKVVKAARGKPVLFFSARFDHYWVQATDGYAALKAGAFGVSTDANADYWGVKSMGTMPHALIACYDGKTEDAAIAFDRHMEEDVNRIVLVDWDNDVIGTTFRVIEKFYEYVMKKPFKLGVTDPSPIIGPGKNKIWGVRFDTSGNLRDKSVVPKDESSFGVCPELVWRARQEFDKVGLRDLKIVVSGGFDEKKIDLFERLGVPADAYGVGSRLLREKVDITADIVEVNGRHCAKVGRYKIENPRLKKVGKRYWEEE”, the “soluble on expression in E. coli” value is “soluble”.

For the sequence “MKRLTAKEEEIMGFFWEKGPLFVKEILAFYDEPRPHFNTLSTIVRGLEEKGFLAHHTYGNTYQYYAVVSESDFSKRTLKSVISKYFNNSYLSAVSSLVKEEDISLDDLKKLIQEVEQKNEE”, the “soluble on expression in E. coli” value is recorded as “soluble”. Consider “MKRMLFIFVSSFLLIALAACAQGKETKSELDYDQTKKMIVDILKTDQGKKAIQDVLTDEKMKQALILDETVVKKTIEDAMVSDKGQQFWEKLFKDPEFSSKFAKSMGKEQTQLMKTLLKDPEYQAGVIEIMKNPEVEKMMLQTMKSKEYRQYLQQVLTETAESPLFQAKMIDIISKGVQKAEKGGSGKKEAGGDGGSQGEKKEEQ”, for which the “soluble on expression in E. coli” value is reported as “not soluble”. The entry for “MKRSSVFSFLVAFLLVAGCSHKMDNKTVAGDVSAKTVQTAPVTTEPAPEKEEPKQEPAPVVEEKPAVESGTIIASIYFDFDKYEIKESDQETLDEIVQKAKENHMQVLLEGNTDEFGSSEYNQALGVKRTLSVKNALVIKGVEKDMIKTISFGETKPKCAQKTRECYKENRRVDVKLMK” is “not soluble”. The value for “MKRTIFLLMSILLLLTACGDGHKQTSSDKEQSEHKDNHNKNQVKQIATDKKVQGDNYRTILPFKESQARGLLQDNMANGYNGEDFESGLLELSKEIFPTNKYLYQDGQYLDKKTINAYLDPKYTKKEIDKMSEKEKKSKNANENLGLNPSHNGETDEEKIAKNSPAYLSNILEQDFYGNSDSKGKNIKGMTIGLAMNSVYYYKKEKDGETFSKDLSDKEIEKQGKQMASEMLSRLRENSDLKDIPIHFAIYKQSSQDSITPGEFIVGTTVEEGKTKINSWDNINEKAALIPSSTAADYDETLNNNFKQFNDNLQSYFSNFTQAVGKVKFVNKKAKQLTVDLPIDYYGQAETIGITQYVTEQAEKYFDKLDEYEIRIKDGNTPRALISKTKDDKEPQVHIYHN” was “not soluble”; that for “MKSHCNKMVGGELKPIIAALLPVEPFYPTQVPFVLSRYIYDVADRQQSSLDYVAVSALCALAAVIGNPHCS” was “not soluble”. The entry for “MKSIVEKLNLTKYQQLVILNRPQGEYLSEFASAAQQLPSEPVELIFAFVKTMAEFQEIVSMVIEGQHLVENGLLYVAYPKKGNKMYPTFVHRDEIFPTLQVNEADGYIKGSTLKFNRMVSLDETFTVVGMKNVLKKLAKNQTSSAVGDYVQYLPEIEALVQTEPAAAATFAALTPGYQKEWARYVFSAKRAETRKKRQTEMLVILKEGYKTKALYQQRKK” is “not soluble”; for “MKSMQDYRTIMTGNDAVAYGAKLARVKLISAYPITPQTTIVEKLASMIANDELDAKYVKVESEHSALATVVSSELAGVRSYTATSSHGLLYMHEMLHWASGQRLPIVMSVVNRAIGPPWNIWADQSDTMNQKDTGWMQVYCESNQEALDTIIMGYKIAENKDVLLPLMSMEDAFILSHTSEPVTIRDQESVNEYLPDLDLPFKINEEHPMGYGSYDTPDGSFMELKKDMVDSMQKAKRIIEDETRKFNEMFGTEYGGLIEKYRMEDADYAIIATGTIASTARYVVDILRKKGEKVGLIRIRYFRPFPYEEILSSLKYVKAAGVIDRSVSFSSGGPTYVEIVQGLYGKLNVPLSSFIAGIGGRDVRIQDIENIYEMLKSGNSGTYWINVKEVR” it is “not soluble”; for “MKSMVEMQREVDEYIGQFKTGYFSPLANLARLTEEVGELAREINHTYGEKKKKDSEEANTIKAELGDNLFVLLCLANSMGIDMTESFNETMEKFNTRDKNRFERKLEHHHHHH” it is “soluble”. As for “MKSQFNQKLEDKFQRNAEQVVSLVKERMQLYENALWSSVAYIDADETDITHTKWLAYSKSLKIDLTYPGINGIGIIYNIQADQLDDYIEKQRVLRPNYAIHPSHNESEYWPITYVEPAAPNKKAIGLDMAFETNRYSSIKKARDTGVAQLTGPITLVQDAKKTPGFLFYTPFYKNGTKPESTEARRDAIDGVTYAPFIMKNLMQGTLAEKNRHVSIQIRDAGDLLFDDHDDESVLDADANPLFTKEQDISLYGRTWSFTIQSNLDFRDESAANQLEHHHHHH”, the “soluble on expression in E. coli” value was “not soluble”. The value for “MKSQLRKKTLEALSALSNEDILQKTERMYKYLFSLPEWQNAGTIAVTISRGLEIPTRPVIEQAWEEGKQVCIPKCHPDTKKMQFRTYQTDDQLETVYAGLLEPVIEKTKEVNPSQIDLMIVPGVCFDVNGFRVGFGGGYYDRYLSEYEGKTVSLLLECQLFAHVPRLPHDIPVHKLITEDRIISCFSLEHHHHHH” was “soluble”. With “MKSRYLLFFLPLIVAKYTSAATMQPFHSPEESVNSQFYLPPPPGNDDPAFRYDKEAYFKGYAIKGSPRWKQAAEDADISVENIARIFSPVVGAKISPKDTPETWNMLQNLLKVGGYYATASAKKYYMRTRPFVLFNHSTCRPEDENTLRKDGSYPSGHTAYSTLLALVLSQARPERAQELARRGWEFGQSRVICGAHWQSDVDAGRYVGAVEFARLQTIPAFQKSLAKVREELNDKNNLLSKEERPELNY”, the “soluble on expression in E. coli” value is on record as “soluble”.
